Test [1] concerns the target Uso1 CCD-His6x (coiled-coil domain, residues 660–1103) (Aspergillus nidulans). The test is described as follows: AUC + other: dynamic light scattering; sedimentation velocity (20 °C, 48,000 rpm, PBS with 5% glycerol and 1 mM β-mercaptoethanol) and DLS at 20 °C; molecular mass from the Svedberg equation, compared with the predicted monomer.
Test [2] deals with Bos1-GST (Bos1 cytoplasmic domain, residues 1–219) (Aspergillus nidulans). Nature of the test: pull-down; 75 µg SNARE-GST on glutathione Sepharose; His6 preys at 0.2 µM, overnight at 4 °C in 25 mM HEPES-KOH pH 7.5, 150 mM NaCl, 10% glycerol, 0.1% Triton X-100, 0.1 mM DTT; anti-His blot.
The target of test [3] is Bet1-GST (Bet1 cytoplasmic domain, residues 1–144). Nature of the test: GST pull-down with purified proteins, anti-His western blot quantitation. The note with it: n = 3, read off a plot. (In western blotting, separated proteins are transferred to a membrane and probed.)
Test [4] concerns the target Bos1-GST (Bos1 cytoplasmic domain, residues 1–219). The test is described as above. Particulars: n = 3; parent: est. 0.7; read off a plot.
The target is the same in test [5]. Nature of the test: GST pull-down with purified proteins, anti-His6x western blot quantitation. Particulars: 4 data points; parent: est. 0.5; read off a plot.
In test [6] the target is Uso1(E6K/G540S)-His6x (full length) (Aspergillus nidulans). The test is described as follows: AUC + other: dynamic light scattering; sedimentation velocity (20 °C, 48,000 rpm, PBS with 5% glycerol and 1 mM β-mercaptoethanol) and DLS at 20 °C; molecular mass from the Svedberg equation, compared with the predicted monomer.
Test [7] deals with Uso1(E6K/G540S)ΔCTR-His6x (residues 1–1040) (Aspergillus nidulans). The description is as above.
The target in test [8] is Uso1-HA3 (native full-length Uso1 in Aspergillus extract) (Aspergillus nidulans). The test is described as follows: SEC; Aspergillus cell extract on Superose 6 10/300 in 25 mM Tris-HCl pH 7.5, 600 mM KCl, 4 mM EDTA, 1 mM DTT; fractions blotted with α-HA. For orientation: Size exclusion chromatography separates by hydrodynamic size, large species first.
Test [9] has as its target Uso1-His6x (full-length Uso1, residues 1–1103) (Aspergillus nidulans). Nature of the test: SEC; bacterially expressed, purified His-tagged reference proteins run on the same Superose column; fractions blotted with α-His.
Test [10] addresses Bet1-GST (Bet1 cytoplasmic domain, residues 1–144) (Aspergillus nidulans). Nature of the test: pull-down; 75 µg SNARE-GST on glutathione Sepharose; His6 preys at 0.2 µM, overnight at 4 °C in 25 mM HEPES-KOH pH 7.5, 150 mM NaCl, 10% glycerol, 0.1% Triton X-100, 0.1 mM DTT; anti-His blot.
For test [11], the target named is Uso1-His6x (full-length Uso1, residues 1–1103) (Aspergillus nidulans). Nature of the test: AUC + other: dynamic light scattering; sedimentation velocity (20 °C, 48,000 rpm, PBS with 5% glycerol and 1 mM β-mercaptoethanol) and DLS at 20 °C; molecular mass from the Svedberg equation, compared with the predicted monomer.
Test [12] has as its target Uso1ΔCTR-His6x (residues 1–1040) (Aspergillus nidulans). Described as above.

Turning to “Uso1 CCD-His6x (coiled-coil domain, residues 660–1103) (domain or fragment)”, the stoichiometry N in test [1] was 2.
“Uso1 GHD E6K (single mutant), His-tagged (domain or fragment)” yielded a fold less efficient than G540S GHD in [2] of 3 fold.
For “Uso1 GHD-His6x (globular head domain, residues 1–659) E6K; G540S”, the response in test [3] (parent: est. 30) was found to be 38 % bound prey; in [4], 21 % bound prey. Moreover, the response (% of input prey bound) in test [5] worked out at 35.
As to “Uso1 GHD-His6x (globular head domain, residues 1–659) G540S”, the response (% of input prey bound) in test [5] was 35.
For “Uso1(E6K/G540S)-His6x (full length) (natural protein)”, the fold change in protein retained against wild-type Uso1 in test [2] stood at 5 fold. Further, in test [6], the stoichiometry N is 2.
“Uso1(E6K/G540S)ΔCTR-His6x (residues 1–1040) (domain or fragment)”: the stoichiometry N in [7] is 2.
For “Uso1-HA3 (native full-length Uso1 in Aspergillus extract) (natural protein)”, the stoichiometry N in test [8] is 2.
“Uso1-His6x (full-length Uso1, residues 1–1103) (natural protein)”: the stoichiometry N in test [9] and in [11] was 2 in each case. Also, the percent of the prey pulled down in test [10] is 70%.
Take “Uso1-His6x (full-length Uso1, residues 1–1103) E6K; G540S”: the response in test [3] (parent: est. 68) was 60 % bound prey.
In the case of “Uso1ΔCTR-His6x (residues 1–1040) (domain or fragment)”, in test [12], the stoichiometry N is 2.

What is called stoichiometry N is a count of units in the complex or per binding partner.
